# According to PMC2734569, “Functional mapping of the fission yeast DNA polymerase δ B-subunit Cdc1 by site-directed and random pentapeptide insertion mutagenesis” (BMC Molecular Biology, 2009):
# B1: Cdc27 (fission yeast DNA polymerase delta C-subunit) (natural protein, Schizosaccharomyces pombe, UniProt P30261 1-372, looked up)
# chain: MEEWRNFLDIKVINESSLVTVDNLSLQLDISSEKAQEYLNMFYQGNDFLYPIYLIHGQPIDDEINLEIDEESQPISNFPVLQYILCDKSSLQEKQSRLKSGYKTVIFALSSAPLSDFDELLPAVYEIREKDVLYKKEDADKYGFIFNENSVPRVLKKAPSTHSPQLSVPSKTSTIDKTDTRSTEKTKGKDIFSNARNQKGNSSRKNKKAPLENHKEKEPLLPKEEKLSEQAKRERDDLKNIMQLEDESVSTTSVHDSEDDNLDSNNFQLEIGTEAKSAAPDEPQEIIKSVSGGKRRGKRKVKKYATTKDEEGFLVTKEEEVWESFSEDENISTGTSNVVRNKPTTVNIATKKKNTAQSKPQQKSIMSFFGKK
# notes: DNA polymerase delta C-subunit Cdc27, S. pombe; prey plasmid pGAD2F-Cdc27; also called pGAD2F-Cdc27; source: yeast two-hybrid fusion, in S. cerevisiae CTY10-5d
# Tests used:
# [1] = biological target: T1, Cdc1-J10 (Schizosaccharomyces pombe, UniProt P87324 1-462, Tyr-ArgGlyThrProTyr-Met); assay: two-hybrid; LexA-Cdc1 bait (pBTM116 or pBTM116BN) with Gal4 activation domain-Cdc27 prey (pGAD2F-Cdc27) in S. cerevisiae CTY10-5d; ONPG liquid culture beta-galactosidase assay, mean of triplicates, as percent of wild-type Cdc1; conditions: partners not purified
# T1 construct: Cdc1, S. pombe, with a pentapeptide inserted after residue 77; also called J11; E6; source: yeast two-hybrid fusion, in S. cerevisiae CTY10-5d
# T1 sequence (looked up): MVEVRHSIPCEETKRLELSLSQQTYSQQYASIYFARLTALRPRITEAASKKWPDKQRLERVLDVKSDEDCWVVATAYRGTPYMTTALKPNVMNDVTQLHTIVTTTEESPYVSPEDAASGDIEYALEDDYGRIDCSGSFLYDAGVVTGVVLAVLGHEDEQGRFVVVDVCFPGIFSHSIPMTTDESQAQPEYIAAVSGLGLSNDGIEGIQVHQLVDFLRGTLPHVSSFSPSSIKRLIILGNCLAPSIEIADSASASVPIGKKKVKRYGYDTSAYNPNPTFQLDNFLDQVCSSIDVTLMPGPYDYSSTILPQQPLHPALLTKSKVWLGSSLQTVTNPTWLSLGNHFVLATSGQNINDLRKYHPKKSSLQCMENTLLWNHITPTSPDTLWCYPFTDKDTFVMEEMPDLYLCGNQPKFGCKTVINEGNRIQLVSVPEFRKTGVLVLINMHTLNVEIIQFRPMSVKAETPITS
# [2] = biological target: T2, Cdc1-E5 (Schizosaccharomyces pombe, UniProt P87324 1-462, Val-MetGlyTyrProVal-Met); assay: as above; conditions: partners not purified
# T2 construct: Cdc1, S. pombe, with a pentapeptide inserted after residue 86; source: yeast two-hybrid fusion, in S. cerevisiae CTY10-5d
# T2 sequence (looked up): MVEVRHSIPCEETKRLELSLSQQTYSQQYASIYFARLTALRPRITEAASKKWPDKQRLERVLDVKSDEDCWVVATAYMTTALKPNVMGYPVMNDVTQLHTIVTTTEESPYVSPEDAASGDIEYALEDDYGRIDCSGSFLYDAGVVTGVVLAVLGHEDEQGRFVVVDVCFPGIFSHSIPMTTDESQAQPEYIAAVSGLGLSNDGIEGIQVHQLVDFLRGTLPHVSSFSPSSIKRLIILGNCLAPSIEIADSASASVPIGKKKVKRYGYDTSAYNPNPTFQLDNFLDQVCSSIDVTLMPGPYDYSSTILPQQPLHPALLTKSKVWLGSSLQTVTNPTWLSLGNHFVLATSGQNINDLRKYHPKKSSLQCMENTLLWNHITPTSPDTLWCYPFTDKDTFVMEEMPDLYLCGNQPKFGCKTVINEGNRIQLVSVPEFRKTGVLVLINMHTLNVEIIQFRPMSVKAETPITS
binder,measurement,setting,value
B1,"two-hybrid beta-galactosidase activity, % of wild-type Cdc1",[1],30%
same,"two-hybrid beta-galactosidase activity, % of wild-type Cdc1",[2],88%
